# Assay results as given in the supplement of paper PMC10724198.
# Key:
# Saccharomyces cerevisiae [1] = experiment: protein stability index of tFT-peptide fusion in wild type (PSI (0-1 scale)); higher = more stable (slower turnover); details: genetic background: wild type
# Description: (§1)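 MPS profiling in S. cerevisiae of two library types built from selected 12-aa C-degron peptides (IN1, IN2, LN1, LN3, VN2, R1-R5, W1-W3, Atg1 and Rpa12 C-termini): saturation mutagenesis libraries and C-terminal +1 capping libraries (13 aa). Each peptide is fused to the C-terminus of a sfGFP-mCherry timer, after a GGGS linker. Cells are FACS-sorted into 8 mCherry/sfGFP bins and sequenced. PSI runs from 0 (unstable) to 1 (stable), measured once in wild type and in the das1Δ or doa10Δ background.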
# Saccharomyces cerevisiae [2] = experiment: protein stability index of tFT-peptide fusion in deletion strain of DOA10 (PSI (0-1 scale)); higher = more stable (slower turnover)
# Description: as §1
# Saccharomyces cerevisiae [3] = experiment: protein stability index of tFT-peptide fusion in deletion strain of DAS1 (PSI (0-1 scale)); higher = more stable (slower turnover)
# Description: as §1
# 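For protein stability index of tFT-peptide fusion in deletion strain of DAS1 in this document: PSI is a weighted mean of each variant's read distribution over the sorted stability bins, computed only for variants having over 10 reads in total.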
# 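For protein stability index of tFT-peptide fusion in deletion strain of DOA10 in this document: PSI per variant is the weighted mean of its sequencing read distribution over the sorted stability bins, counting only variants with over 10 reads summed across bins.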
# 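For protein stability index of tFT-peptide fusion in wild type in this document: PSI derived as read-weighted mean over the 8 sorting bins, only variants exceeding 10 total reads kept, mCherry placed adjacent to the peptide and sfGFP distal.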
Sequence,protein stability index (Saccharomyces cerevisiae [1]),protein stability index (Saccharomyces cerevisiae [2]),protein stability index (Saccharomyces cerevisiae [3])
RSLRVLLELYFR,0.557,0.593,–
AITLPMCPLLDR,0.655,0.7,–
RSLRVLLYLYFR,0.235,0.479,–
CRVSLPILLFFR,0.0571,0.62,–
GLYPCSVGCWFR,0.394,0.678,–
RSLRVLLPLYVR,0.202,0.35,–
RVTRLDAIYLRI,0.302,0.704,–
RDLRVLLPLYFR,0.295,0.675,–
RVTRLDAIYFRN,0.6,0.676,–
GLYMCSVGCWCR,0.334,0.45,–
AITLPMSPLLLR,0.276,0.673,–
RSVRVLLPLYFR,0.238,0.661,–
GLYKCSVGCWFR,0.453,0.671,–
RSLRVLLPLYGR,0.595,0.642,–
HLVSLPILLFFR,0.108,0.618,–
RSLRVLDPLYFR,0.556,0.721,–
RSLPVLLPLYFR,0.186,0.672,–
RVTRLDAIYFHI,0.491,0.527,–
RSNRVLLPLYFR,0.334,0.701,–
RLITPLPVQFLN,0.0429,–,0.605
FSSRWTFRYWVN,0.1,–,0.604
LKILRQKMLHQN,0.227,–,0.643
LKIIRQKMNHQN,0.204,–,0.718
PNKRNHLIKLLN,0.0744,–,0.597
FSPRWTFRYWVN,0.075,–,0.59
PSLAASFWRTVG,0.172,–,0.698
KKHKCGQKQKIN,0.0807,–,0.582
RTSCGYKFRTNN,0.188,–,0.685
PSYAASFWRVVG,0.131,–,0.715
